Results taken from US20130295102A1 (Novartis, published 2013).
Where a chain is given by its changes, count along the chain named.

B1: NVS962 (Fab, V domains shown)
VH: EVQLVQSGAEVKKPGSSVKVSCKASGGTFNSYAISWVRQAPGQGLEWMGRIIPIFGTANYAQKFQGRVTITADESTSTAYMELSSLRSEDTAVYYCARHGGYSFDSWGQGTLVTVSS
VL: SYELTQPPSVSVAPGQTARISCSGDNLGSKYVDWYQQKPGQAPVLVIYSDNNRPSGIPERFSGSNSGNTATLTISGTQAEDEADYYCQTYTSGNNYLVFGGGTKLTVLG
notes: also called Fab NVS962
B2: NVS804 (Fab, V domains shown)
VH: B1 VH with N30S, S103I
VL: B1 VL with E3V, Q16K, E80M, Q88A, T91D, G93S, N94P, N95R, Y96T, L97E
B3: NVS809 (Fab, V domains shown)
VH: B1 VH with N30S, S103Y
VL: B1 VL with E3V, Q16K, E80M, Q88A, T91D, G93S, N94P, N95R, Y96T, L97E
B4: NVS962-G (Fab, V domains shown)
VH: B1 VH with N30G
VL: B1 VL
notes: NVS962 with heavy chain N30 replaced with glycine
B5: NVS962-T (Fab, V domains shown)
VH: B1 VH with N30T
VL: B1 VL
notes: NVS962 with heavy chain N30 replaced with threonine; also called NSV962-T
B6: NVS806 (Fab, V domains shown)
VH: B1 VH with N30S, S103V
VL: B1 VL
B7: NVS962-S (Fab, V domains shown)
VH: B1 VH with N30S
VL: B1 VL
notes: NVS962 with heavy chain N30 replaced with serine
B8: NVS962-S31A (Fab, V domains shown)
VH: B1 VH with S31A
VL: B1 VL
notes: NVS962 with heavy chain serine 31 replaced with alanine
B9: NVS807 (Fab, V domains shown)
VH: B1 VH with N30S, S103Y
VL: B1 VL
B10: NVS805 (Fab, V domains shown)
VH: B1 VH with N30S, S103V
VL: B1 VL with E3V, Q16K, E80M, Q88A, T91D, G93S, N94P, N95R, Y96T, L97E
B11: NVS808 (Fab, V domains shown)
VH: B1 VH with N30S, S103I
VL: B1 VL
B12: NVS962-Q (Fab, V domains shown)
VH: B1 VH with N30Q
VL: B1 VL
notes: NVS962 with heavy chain N30 replaced with glutamine (deamidation site removed)

How the values were obtained:
Human Factor P [1] = molecular target: T1, Human Factor P (human, UniProt P27918 29-469); assay: cell-based or functional assay
T1 sequence (P27918 29-469 limits assumed): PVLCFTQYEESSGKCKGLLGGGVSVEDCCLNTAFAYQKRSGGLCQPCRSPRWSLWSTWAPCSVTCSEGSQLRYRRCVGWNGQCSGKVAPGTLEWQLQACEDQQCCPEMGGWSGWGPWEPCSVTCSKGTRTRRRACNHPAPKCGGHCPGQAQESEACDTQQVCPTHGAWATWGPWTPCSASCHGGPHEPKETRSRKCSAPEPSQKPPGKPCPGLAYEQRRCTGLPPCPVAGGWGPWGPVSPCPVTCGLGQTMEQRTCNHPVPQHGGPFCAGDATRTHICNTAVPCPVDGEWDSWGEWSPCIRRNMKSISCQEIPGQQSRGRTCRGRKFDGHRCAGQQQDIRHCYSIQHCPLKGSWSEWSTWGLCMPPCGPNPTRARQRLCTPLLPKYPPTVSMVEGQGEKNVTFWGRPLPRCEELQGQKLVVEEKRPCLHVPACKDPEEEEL

Cynomolgus Factor P [2] = molecular target: Cynomolgus Factor P (cynomolgus); assay: cell-based or functional assay
Human Factor P [3] = molecular target: T1, Human Factor P; assay: Biacore SPR, captured Factor P
Cynomolgus Factor P [4] = molecular target: T2, Cynomolgus Factor P (cynomolgus); assay: Biacore SPR, captured Factor P
T2 construct: Purified from cynomolgus serum for SET/Biacore; Factor P of cynomolgus serum in the functional assays; also called Cyno Factor P; cyno FP

Human Factor P [5] = molecular target: T1, Human Factor P; assay: SET, solution equilibrium titration
Procedure: (§1) In SET, a constant amount of antibody is incubated with different concentrations of antigen until equilibrium is reached. The concentration of free antibody in the equilibrated solution is determined by applying the solution on an antigen coated MSD™ plate (Meso Scale Discovery™) followed by incubation with an ECL-labeled secondary antibody and measurement of signal intensity. At low antigen concentrations, a strong signal is achieved (high concentration of free antibody which binds to the antigen on the plate) whereas for high antigen concentration, the antibody is completely antigen-captured, resulting in a low signal. If a sufficient number of antigen concentrations in a matching range are available, the titration curve allows for a reasonable determination of the affinity, using the appropriate fit model. […] The constant concentration of antibody applied in the assay should be in the range of, or below, the KD (Table 4).
(§2) Human Factor P (Complement Technology cat#: A139) and Cyno Factor P purified from cyno serum (protocol adapted from Nakano, et al., (1986) J Immunol Methods 90:77-83) were coated on standard binding MSD plates (Meso-Scale Discovery, 384-well: MSD cat#: L21XA, 96-well: MSD cat#: L15XA) at 0.2-0.3 μg/ml in 25 μl PBS and incubated overnight at 4° C. Factor P inhibitors were diluted to a fixed concentration (1 pM or 10 pM) in incubation buffer (PBS with 2% BSA (Sigma cat#: A4503) and 1% Tween20 and 1% Triton-X (Sigma cat#: 234729)), and added to a serial dilution of Factor P (human or cyno) in incubation buffer. Samples were allowed to reach equilibrium by incubation at RT overnight. Plates were washed 3× in wash buffer (PBS with 0.05% Tween20), and blocked with 100 μl incubation buffer at RT for 2 hrs. Plates were washed 3× in wash buffer. Sample containing Factor P inhibitors and Factor P titration were added to the plate (25 μl), and incubated at RT for 15 min. Plates were washed 3× in wash buffer. 25 μl detection antibody was added (Anti-Human (Goat) Sulfo-TAG, 1:1000 in incubation buffer, MSD cat#: R32AJ-1), and incubated at RT for 60 min. Plates were washed 3× in wash buffer, and 50 μl of 1×MSD Read buffer T was added (with surfactant, MSD cat#: R92TC-1). Plates were read on a MSD Spector Imager 6000.

Cynomolgus Factor P [6] = molecular target: T2, Cynomolgus Factor P; assay: SET, solution equilibrium titration
Procedure: as §1, §2

| Binder | Hemolytic assay IC50 (nM), 10% serum (Human Factor P [1]) | Inhibition of C3a generation, 20% human serum (Human Factor P [1]) | MAC Deposition, 20% Serum EC50 (Human Factor P [1]) | Zymosan-C3b IC50 (nM), 10% serum (Human Factor P [1]) | Hemolytic assay IC50 (nM), 10% serum (Cynomolgus Factor P [2]) | MAC Deposition, 20% Serum EC50 (Cynomolgus Factor P [2]) | Zymosan-C3b IC50 (nM), 10% serum (Cynomolgus Factor P [2]) | Kd (Human Factor P [3]) | koff (Human Factor P [3]) | kon (Human Factor P [3]) | Kd (Cynomolgus Factor P [4]) | koff (Cynomolgus Factor P [4]) | kon (Cynomolgus Factor P [4]) | Kd (Human Factor P [5]) | Kd (Cynomolgus Factor P [6]) |
| --- | --- | --- | --- | --- | --- | --- | --- | --- | --- | --- | --- | --- | --- | --- | --- |
| B1 | 13.2 nM | 78.4 nM | 18.8 nM | 2.63 nM | 16.1 nM | 12.1 nM | 9.91 nM | 0.083 nM | 0.000125 s⁻¹ | 1.52e+06 M⁻¹ s⁻¹ | 0.182 nM | 0.000279 s⁻¹ | 1.53e+06 M⁻¹ s⁻¹ | 0.046 nM | 0.047 nM |
| B2 | 12.4 nM |  | 5.85 nM |  | 14.4 nM | 8.51 nM |  | 0.005 nM | 1.29e-05 s⁻¹ | 2.72e+06 M⁻¹ s⁻¹ |  |  |  | 0.0008 nM |  |
| B3 | 12.1 nM |  | 6.46 nM |  | 12.8 nM | 5.9 nM |  | 0.0247 nM | 0.000104 s⁻¹ | 4.25e+06 M⁻¹ s⁻¹ |  |  |  | 0.0042 nM |  |
| B4 | 13.4 nM |  | 12.7 nM | 1.18 nM | 14.2 nM | 9.27 nM | 2.94 nM | 1.14 nM | 0.00044 s⁻¹ | 387000 M⁻¹ s⁻¹ | 1.08 nM | 0.000339 s⁻¹ | 313000 M⁻¹ s⁻¹ | 0.953 nM | 0.567 nM |
| B5 | 9.31 nM |  | 6.61 nM | 1.75 nM | 12.5 nM | 5.42 nM | 3.1 nM | 0.131 nM | 8.35e-05 s⁻¹ | 639000 M⁻¹ s⁻¹ | 0.175 nM | 8.56e-05 s⁻¹ | 488000 M⁻¹ s⁻¹ | 0.251 nM | 0.354 nM |
| B6 | 10.1 nM |  | 5.74 nM |  | 13.9 nM | 6.51 nM |  | 0.052 nM | 2.24e-05 s⁻¹ | 434000 M⁻¹ s⁻¹ |  |  |  | 0.018 nM |  |
| B7 | 8.21 nM |  | 6.53 nM | 1.53 nM | 12 nM | 15.6 nM | 1.94 nM | 0.161 nM | 0.000117 s⁻¹ | 730000 M⁻¹ s⁻¹ | 0.127 nM | 6.66e-05 s⁻¹ | 524000 M⁻¹ s⁻¹ | 0.156 nM | 0.141 nM |
| B8 | 12.8 nM |  | 9.96 nM | 1.15 nM | 11.6 nM | 7.86 nM | 3.12 nM | 0.225 nM | 0.000113 s⁻¹ | 504000 M⁻¹ s⁻¹ | 0.234 nM | 8.7e-05 s⁻¹ | 372000 M⁻¹ s⁻¹ | 0.189 nM | 0.189 nM |
| B9 | 12.9 nM |  | 5.4 nM |  | 12.6 nM | 6.35 nM |  | 0.106 nM | 0.000123 s⁻¹ | 1.21e+06 M⁻¹ s⁻¹ |  |  |  | 0.027 nM |  |
| B10 | 12.8 nM |  | 5.9 nM |  | 22.1 nM | 5.95 nM |  | 0.003 nM | 9.88e-06 s⁻¹ | 3.61e+06 M⁻¹ s⁻¹ |  |  |  | 0.0003 nM |  |
| B11 | 13.3 nM |  | 6.51 nM |  | 15.5 nM | 8.38 nM |  | 0.195 nM | 0.000154 s⁻¹ | 791000 M⁻¹ s⁻¹ |  |  |  | 0.107 nM |  |
| B12 | 15.3 nM |  | 23.1 nM | 0.64 nM | 14.7 nM | 20.9 nM | 1.62 nM | 0.496 nM | 0.000311 s⁻¹ | 627000 M⁻¹ s⁻¹ | 0.475 nM | 0.000264 s⁻¹ | 555000 M⁻¹ s⁻¹ | 1.06 nM | 0.93 nM |
